{"source": "IntAct's records for PubMed 17380128", "parents": {"B1": {"name": "Retinoblastoma-associated protein (Homo sapiens), P06400 (parent)", "chain": "MPPKTPRKTAATAAAAAAEPPAPPPPPPPEEDPEQDSGPEDLPLVRLEFEETEEPDFTALCQKLKIPDHVRERAWLTWEKVSSVDGVLGGYIQKKKELWGICIFIAAVDLDEMSFTFTELQKNIEISVHKFFNLLKEIDTSTKVDNAMSRLLKKYDVLFALFSKLERTCELIYLTQPSSSISTEINSALVLKVSWITFLLAKGEVLQMEDDLVISFQLMLCVLDYFIKLSPPMLLKEPYKTAVIPINGSPRTPRRGQNRSARIAKQLENDTRIIEVLCKEHECNIDEVKNVYFKNFIPFMNSLGLVTSNGLPEVENLSKRYEEIYLKNKDLDARLFLDHDKTLQTDSIDSFETQRTPRKSNLDEEVNVIPPHTPVRTVMNTIQQLMMILNSASDQPSENLISYFNNCTVNPKESILKRVKDIGYIFKEKFAKAVGQGCVEIGSQRYKLGVRLYYRVMESMLKSEEERLSIQNFSKLLNDNIFHMSLLACALEVVMATYSRSTSQNLDSGTDLSFPWILNVLNLKAFDFYKVIESFIKAEGNLTREMIKHLERCEHRIMESLAWLSDSPLFDLIKQSKDREGPTDHLESACPLNLPLQNNHTAADMYLSPVRSPKKKGSTTRVNSTANAETQATSAFQTQKPLKSTSLSLFYKKVYRLAYLRLNTLCERLLSEHPELEHIIWTLFQHTLQNEYELMRDRHLDQIMMCSMYGICKVKNIDLKFKIIVTAYKDLPHAVQETFKRVLIKEEEYDSIIVFYNSVFMQRLKTNILQYASTRPPTLSPIPHIPRSPYKFPSSPLRIPGGNIYISPLKSPYKISEGLPTPTKMTPRSRILVSIGESFGTSEKFQKINQMVCNSDRVLKRSAEGSNPPKPLKKLRFDIEGSDEADGSKHLPGESKFQQKLAEMTSTRTRMQKQKMNDSMDTSNKEEK"}}, "data": [{"variants_of": "B1", "conditions": "with e2f1_human E2F1, Q01094", "values": [{"variant": "S612A", "effect of a mutation on the interaction": "decreasing interaction"}]}]}
